What was measured:
human 5T4 on cells = target: T1, human 5T4 on cells (human, UniProt Q13641 32-420); assay: flow cytometry, CHO-K1/human 5T4 cells (FIG. 4)
T1 construct: Human 5T4 on transfected cells (CHO-K1, CT26, B16) or endogenous on human tumour lines; the cell line is named under assay; also called trophoblast glycoprotein; TPBG
T1 sequence: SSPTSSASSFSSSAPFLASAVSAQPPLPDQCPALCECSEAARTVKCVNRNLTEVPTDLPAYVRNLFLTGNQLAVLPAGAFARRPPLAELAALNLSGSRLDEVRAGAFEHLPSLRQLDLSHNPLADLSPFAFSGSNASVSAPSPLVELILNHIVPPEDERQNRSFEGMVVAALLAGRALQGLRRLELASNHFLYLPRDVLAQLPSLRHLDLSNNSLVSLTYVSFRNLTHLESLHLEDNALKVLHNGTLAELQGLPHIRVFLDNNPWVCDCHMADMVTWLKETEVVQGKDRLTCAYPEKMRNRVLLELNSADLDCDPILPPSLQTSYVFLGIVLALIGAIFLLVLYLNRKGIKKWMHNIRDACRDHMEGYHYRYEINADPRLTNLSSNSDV
Procedure: (§1) Binding studies were performed by standard flow cytometry-based staining procedures two cell lines expressing 5T4:CHO-K1 cells (obtained from Alligator) transduced with human or cynomolgus macaque 5T4 and SKOV-3 human ovarian adenocarcinoma cells which express (human) 5T4. All labeling and washes were performed in U-bottom 96-well plates in saline buffer with 0.1% BSA and 2 mM EDTA. Cell were plated at approximately 100,000 cells per well and incubated with a range of 100 nM to 0.05 nM concentrations of test molecules in 50 μL volume/well, for 30 minutes on ice. Cells were washed three times then incubated for another 30 min on ice with fluorescently-labeled secondary polyclonal antibody, F(ab′)² goat anti-human IgG (Jackson ImmunoResearch Laboratories). The cells were then washed twice and the samples acquired in a BD LSRII or a Symphony A3 flow cytometer. The sample files were analyzed using FlowJo software; the mean fluorescence intensity (MFI-mean) or median fluorescence intensity (MFI-median) of the live population of cells in each well was calculated after gating on live cells (forward vs side scatter). Nonlinear regression analysis to determine EC₅₀ values was performed in GraphPad Prism 6® graphing and statistics software.
The differences in EC₅₀ values between constructs were more evident when binding assays were conducted on SKOV-3 cells. […]

cynomolgus 5T4 on cells = target: T2, cynomolgus 5T4 on cells (cynomolgus macaque, UniProt Q4R8Y9 35-420); assay: flow cytometry, CHO-K1/cynomolgus 5T4 transfectants (FIG. 7)
T2 construct: whole, on cells; also called CHO-K1/cynomolgus 5T4
T2 sequence (looked up): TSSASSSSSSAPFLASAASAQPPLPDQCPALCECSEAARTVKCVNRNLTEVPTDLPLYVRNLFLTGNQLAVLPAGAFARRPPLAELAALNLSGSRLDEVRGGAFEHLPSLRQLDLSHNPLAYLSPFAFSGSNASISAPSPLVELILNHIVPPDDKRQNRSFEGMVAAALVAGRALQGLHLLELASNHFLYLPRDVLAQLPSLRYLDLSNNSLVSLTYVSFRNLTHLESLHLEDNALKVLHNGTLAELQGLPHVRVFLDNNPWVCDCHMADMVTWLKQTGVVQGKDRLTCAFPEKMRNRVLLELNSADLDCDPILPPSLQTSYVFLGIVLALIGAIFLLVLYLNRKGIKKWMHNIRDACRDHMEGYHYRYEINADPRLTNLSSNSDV
Procedure: as §1

binding result (human 5T4 on cells): binds
binding result (cynomolgus 5T4 on cells): binds
B1: ALG.APV-191 (bispecific antibody)
chain: EVQLLESGGGLVQPGGSLRLSCAASGFTFDYGSMYWVRQAPGKGLEWVSSISSGSGSTYYADSVKGRFTISHDNSKNTLYLQMNSLRAEDTAVYYCARSSYYGSYYSIDYWGQGTLVTVSSGGGGSGGGGSGGGGSGGGGSDIQMTQSPSSLSASVGDRVTITCRASQSISSYLNWYQQKPGKAPKLLIYAASSLHSGVPSRFSGSGSGTDFTLTISSLQPEDFATYYCQQYYDNLPTFGQGTKLEIKSSEPKSSDKTHTCPPCPAPEAAGAPSVFLFPPKPKDTLMISRTPEVTCVVVDVSHEDPEVKFNWYVDGVEVHNAKTKPREEQYNSTYRVVSVLTVLHQDWLNGKEYKCAVSNKALPAPIEKTISKAKGQPREPQVYTLPPSRDELTKNQVSLTCLVKGFYPSDIAVEWESNGQPENNYKTTPPVLDSDGSFFLYSKLTVDKSRWQQGNVFSCSVMHEALHNHYTQKSLSLSPGSGGGGSGGGGSGGGGSPSEVQLLESGGGLVQPGGSLRLSCAASGFTFSSYAMSWVRQAPGKCLEWVSAISGSGGSTYYADSVKGRFTISRDNSKNTLYLQMNSLRAEDTAVYYCARYYGGYYSAWMDYWGQGTLVTVSSGGGGSGGGGSGGGGSGGGGSDIQMTQSPSSLSASVGDRVTITCRASQSISSFLNWYQQKPGKAPKLLIYAASSLQSGVPSRFSGSGSGTDFTLTISSLQPEDFATYYCQQTYGYLHTFGCGTKLEIKS
notes: scFv-Fc-scFv (ADAPTIR) homodimer
